Results reported in patent US20110166062A1 (INDIANA UNIVERSITY RESEARCH AND TECHNOLOGY, published 2011).
Bridges are numbered along the chain shown (N, C = ends). Where no end group is shown, it is not given here.

T1: GIP receptor (UniProt P48546 22-466)
T1 sequence (looked up): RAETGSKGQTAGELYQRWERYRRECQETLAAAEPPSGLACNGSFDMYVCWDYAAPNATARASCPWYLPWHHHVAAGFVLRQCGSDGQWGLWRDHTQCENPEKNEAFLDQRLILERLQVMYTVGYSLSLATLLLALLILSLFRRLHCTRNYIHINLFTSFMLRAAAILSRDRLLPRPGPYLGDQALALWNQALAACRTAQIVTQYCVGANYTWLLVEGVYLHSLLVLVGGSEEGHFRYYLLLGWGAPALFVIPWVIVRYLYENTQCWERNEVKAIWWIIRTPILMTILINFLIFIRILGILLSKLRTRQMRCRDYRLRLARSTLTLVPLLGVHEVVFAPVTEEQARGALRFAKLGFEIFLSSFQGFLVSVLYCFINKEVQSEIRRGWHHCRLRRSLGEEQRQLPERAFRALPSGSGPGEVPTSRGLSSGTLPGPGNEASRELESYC

B1: mt-61 (peptide)
peptide: HSQGTFTSDYSKYLDEIHQKEFIAWLMNT-NH2
modifications: lactam 16-20; N-terminus assumed
SMILES: CC[C@H](C)[C@H](NC(=O)[C@H](Cc1ccccc1)NC(=O)[C@H](CCC(=O)O)NC(=O)[C@@H]1CCCCNC(=O)CC[C@H](NC(=O)[C@H](CC(=O)O)NC(=O)[C@H](CC(C)C)NC(=O)[C@H](Cc2ccc(O)cc2)NC(=O)[C@H](CCCCN)NC(=O)[C@H](CO)NC(=O)[C@H](Cc2ccc(O)cc2)NC(=O)[C@H](CC(=O)O)NC(=O)[C@H](CO)NC(=O)[C@@H](NC(=O)[C@H](Cc2ccccc2)NC(=O)[C@@H](NC(=O)CNC(=O)[C@H](CCC(N)=O)NC(=O)[C@H](CO)NC(=O)[C@@H](N)Cc2c[nH]cn2)[C@@H](C)O)[C@@H](C)O)C(=O)N[C@@H]([C@@H](C)CC)C(=O)N[C@@H](Cc2c[nH]cn2)C(=O)N[C@@H](CCC(N)=O)C(=O)N1)C(=O)N[C@@H](C)C(=O)N[C@@H](Cc1c[nH]c2ccccc12)C(=O)N[C@@H](CC(C)C)C(=O)N[C@@H](CCSC)C(=O)N[C@@H](CC(N)=O)C(=O)N[C@H](C(N)=O)[C@@H](C)O
B2: mt-127 (peptide)
peptide: YSQGTFTSDYSKYLDEQAAKEFVNWLLAGGPSSGAPPPS-NH2
modifications: lactam 16-20; N-terminus assumed
SMILES: CC(C)C[C@H](NC(=O)[C@H](CC(C)C)NC(=O)[C@H](Cc1c[nH]c2ccccc12)NC(=O)[C@H](CC(N)=O)NC(=O)[C@@H](NC(=O)[C@H](Cc1ccccc1)NC(=O)[C@H](CCC(=O)O)NC(=O)[C@@H]1CCCCNC(=O)CC[C@H](NC(=O)[C@H](CC(=O)O)NC(=O)[C@H](CC(C)C)NC(=O)[C@H](Cc2ccc(O)cc2)NC(=O)[C@H](CCCCN)NC(=O)[C@H](CO)NC(=O)[C@H](Cc2ccc(O)cc2)NC(=O)[C@H](CC(=O)O)NC(=O)[C@H](CO)NC(=O)[C@@H](NC(=O)[C@H](Cc2ccccc2)NC(=O)[C@@H](NC(=O)CNC(=O)[C@H](CCC(N)=O)NC(=O)[C@H](CO)NC(=O)[C@@H](N)Cc2ccc(O)cc2)[C@@H](C)O)[C@@H](C)O)C(=O)N[C@@H](CCC(N)=O)C(=O)N[C@@H](C)C(=O)N[C@@H](C)C(=O)N1)C(C)C)C(=O)N[C@@H](C)C(=O)NCC(=O)NCC(=O)N1CCC[C@H]1C(=O)N[C@@H](CO)C(=O)N[C@@H](CO)C(=O)NCC(=O)N[C@@H](C)C(=O)N1CCC[C@H]1C(=O)N1CCC[C@H]1C(=O)N1CCC[C@H]1C(=O)N[C@@H](CO)C(N)=O
B3: mt-145 (peptide)
peptide: YAQGTFISDYSKYLDEQAAKEFVNWLLAGGPSSGAPPPS-NH2
modifications: lactam 16-20; N-terminus assumed
SMILES: CC[C@H](C)[C@H](NC(=O)[C@H](Cc1ccccc1)NC(=O)[C@@H](NC(=O)CNC(=O)[C@H](CCC(N)=O)NC(=O)[C@H](C)NC(=O)[C@@H](N)Cc1ccc(O)cc1)[C@@H](C)O)C(=O)N[C@@H](CO)C(=O)N[C@@H](CC(=O)O)C(=O)N[C@@H](Cc1ccc(O)cc1)C(=O)N[C@@H](CO)C(=O)N[C@@H](CCCCN)C(=O)N[C@@H](Cc1ccc(O)cc1)C(=O)N[C@@H](CC(C)C)C(=O)N[C@@H](CC(=O)O)C(=O)N[C@H]1CCC(=O)NCCCC[C@@H](C(=O)N[C@@H](CCC(=O)O)C(=O)N[C@@H](Cc2ccccc2)C(=O)N[C@H](C(=O)N[C@@H](CC(N)=O)C(=O)N[C@@H](Cc2c[nH]c3ccccc23)C(=O)N[C@@H](CC(C)C)C(=O)N[C@@H](CC(C)C)C(=O)N[C@@H](C)C(=O)NCC(=O)NCC(=O)N2CCC[C@H]2C(=O)N[C@@H](CO)C(=O)N[C@@H](CO)C(=O)NCC(=O)N[C@@H](C)C(=O)N2CCC[C@H]2C(=O)N2CCC[C@H]2C(=O)N2CCC[C@H]2C(=O)N[C@@H](CO)C(N)=O)C(C)C)NC(=O)[C@H](C)NC(=O)[C@H](C)NC(=O)[C@H](CCC(N)=O)NC1=O
B4: mt-142 (peptide)
peptide: YAEGTFTSDYSIYMDEQAAKEFVNWLLAGGPSSGAPPPS-NH2
modifications: lactam 16-20; N-terminus assumed
SMILES: CC[C@H](C)[C@H](NC(=O)[C@H](CO)NC(=O)[C@H](Cc1ccc(O)cc1)NC(=O)[C@H](CC(=O)O)NC(=O)[C@H](CO)NC(=O)[C@@H](NC(=O)[C@H](Cc1ccccc1)NC(=O)[C@@H](NC(=O)CNC(=O)[C@H](CCC(=O)O)NC(=O)[C@H](C)NC(=O)[C@@H](N)Cc1ccc(O)cc1)[C@@H](C)O)[C@@H](C)O)C(=O)N[C@@H](Cc1ccc(O)cc1)C(=O)N[C@@H](CCSC)C(=O)N[C@@H](CC(=O)O)C(=O)N[C@H]1CCC(=O)NCCCC[C@@H](C(=O)N[C@@H](CCC(=O)O)C(=O)N[C@@H](Cc2ccccc2)C(=O)N[C@H](C(=O)N[C@@H](CC(N)=O)C(=O)N[C@@H](Cc2c[nH]c3ccccc23)C(=O)N[C@@H](CC(C)C)C(=O)N[C@@H](CC(C)C)C(=O)N[C@@H](C)C(=O)NCC(=O)NCC(=O)N2CCC[C@H]2C(=O)N[C@@H](CO)C(=O)N[C@@H](CO)C(=O)NCC(=O)N[C@@H](C)C(=O)N2CCC[C@H]2C(=O)N2CCC[C@H]2C(=O)N2CCC[C@H]2C(=O)N[C@@H](CO)C(N)=O)C(C)C)NC(=O)[C@H](C)NC(=O)[C@H](C)NC(=O)[C@H](CCC(N)=O)NC1=O
B5: mt-69 (peptide)
peptide: HSQGTFTSDYSKYLDKIHQEEFIAWLMNT-NH2
modifications: lactam 16-20; N-terminus assumed
SMILES: CC[C@H](C)[C@H](NC(=O)[C@H](Cc1ccccc1)NC(=O)[C@H](CCC(=O)O)NC(=O)[C@@H]1CCC(=O)NCCCC[C@H](NC(=O)[C@H](CC(=O)O)NC(=O)[C@H](CC(C)C)NC(=O)[C@H](Cc2ccc(O)cc2)NC(=O)[C@H](CCCCN)NC(=O)[C@H](CO)NC(=O)[C@H](Cc2ccc(O)cc2)NC(=O)[C@H](CC(=O)O)NC(=O)[C@H](CO)NC(=O)[C@@H](NC(=O)[C@H](Cc2ccccc2)NC(=O)[C@@H](NC(=O)CNC(=O)[C@H](CCC(N)=O)NC(=O)[C@H](CO)NC(=O)[C@@H](N)Cc2c[nH]cn2)[C@@H](C)O)[C@@H](C)O)C(=O)N[C@@H]([C@@H](C)CC)C(=O)N[C@@H](Cc2c[nH]cn2)C(=O)N[C@@H](CCC(N)=O)C(=O)N1)C(=O)N[C@@H](C)C(=O)N[C@@H](Cc1c[nH]c2ccccc12)C(=O)N[C@@H](CC(C)C)C(=O)N[C@@H](CCSC)C(=O)N[C@@H](CC(N)=O)C(=O)N[C@H](C(N)=O)[C@@H](C)O
B6: mt-63 (peptide)
peptide: HSQGTFTSDYSKYLDEIHQKEFIAWLMNT-NH2
modifications: lactam 12-16; N-terminus assumed
SMILES: CC[C@H](C)[C@H](NC(=O)[C@H](Cc1ccccc1)NC(=O)[C@H](CCC(=O)O)NC(=O)[C@H](CCCCN)NC(=O)[C@H](CCC(N)=O)NC(=O)[C@H](Cc1c[nH]cn1)NC(=O)[C@@H](NC(=O)[C@@H]1CCC(=O)NCCCC[C@H](NC(=O)[C@H](CO)NC(=O)[C@H](Cc2ccc(O)cc2)NC(=O)[C@H](CC(=O)O)NC(=O)[C@H](CO)NC(=O)[C@@H](NC(=O)[C@H](Cc2ccccc2)NC(=O)[C@@H](NC(=O)CNC(=O)[C@H](CCC(N)=O)NC(=O)[C@H](CO)NC(=O)[C@@H](N)Cc2c[nH]cn2)[C@@H](C)O)[C@@H](C)O)C(=O)N[C@@H](Cc2ccc(O)cc2)C(=O)N[C@@H](CC(C)C)C(=O)N[C@@H](CC(=O)O)C(=O)N1)[C@@H](C)CC)C(=O)N[C@@H](C)C(=O)N[C@@H](Cc1c[nH]c2ccccc12)C(=O)N[C@@H](CC(C)C)C(=O)N[C@@H](CCSC)C(=O)N[C@@H](CC(N)=O)C(=O)N[C@H](C(N)=O)[C@@H](C)O
B7: mt-139 (peptide)
peptide: YSQGTFTSDYSKYLDEQAAKEFIAWLLAGGPSSGAPPPS-NH2
modifications: lactam 16-20; N-terminus assumed
SMILES: CC[C@H](C)[C@H](NC(=O)[C@H](Cc1ccccc1)NC(=O)[C@H](CCC(=O)O)NC(=O)[C@@H]1CCCCNC(=O)CC[C@H](NC(=O)[C@H](CC(=O)O)NC(=O)[C@H](CC(C)C)NC(=O)[C@H](Cc2ccc(O)cc2)NC(=O)[C@H](CCCCN)NC(=O)[C@H](CO)NC(=O)[C@H](Cc2ccc(O)cc2)NC(=O)[C@H](CC(=O)O)NC(=O)[C@H](CO)NC(=O)[C@@H](NC(=O)[C@H](Cc2ccccc2)NC(=O)[C@@H](NC(=O)CNC(=O)[C@H](CCC(N)=O)NC(=O)[C@H](CO)NC(=O)[C@@H](N)Cc2ccc(O)cc2)[C@@H](C)O)[C@@H](C)O)C(=O)N[C@@H](CCC(N)=O)C(=O)N[C@@H](C)C(=O)N[C@@H](C)C(=O)N1)C(=O)N[C@@H](C)C(=O)N[C@@H](Cc1c[nH]c2ccccc12)C(=O)N[C@@H](CC(C)C)C(=O)N[C@@H](CC(C)C)C(=O)N[C@@H](C)C(=O)NCC(=O)NCC(=O)N1CCC[C@H]1C(=O)N[C@@H](CO)C(=O)N[C@@H](CO)C(=O)NCC(=O)N[C@@H](C)C(=O)N1CCC[C@H]1C(=O)N1CCC[C@H]1C(=O)N1CCC[C@H]1C(=O)N[C@@H](CO)C(N)=O

What follows are binders tested against GLP-1 receptor (UniProt P43220 24-463, limits assumed) (assay: cell-based or functional assay).

| Binder | EC50 [nM] | relative activity [%] |
| --- | --- | --- |
| HSQGTFTSDYSKYLDKIHQEEFIAWLMNT-NH2 [mt-68] | 0.82 | – |
| B1 | 0.18 | – |
| B2 | 0.055 | – |
| B3 | 9.94 | – |
| B4 | 0.041 | 163 |
| B5 | 0.41 | – |
| B6 | 0.31 | – |
| B7 | 0.142 | – |

Each binder was assayed against T1, GIP receptor (assay: cell-based or functional assay).

| Binder | EC50 [nM] | relative activity [%] |
| --- | --- | --- |
| B1 | 9.99 | – |
| B2 | 0.518 | – |
| B3 | 1.09 | – |
| B4 | 0.132 | 36.4 |
| YAPGTFISDYSIAMDKIHQQDFVNWLLAQKGKKNWLKHNITQ-NH2 [mt-101] | 71.3 | 0.06 |
| B5 | 14.6 | 0.57 |
| B7 | 0.569 | – |
